Source: paper PMC9884874 (Journal for Immunotherapy of Cancer, 2023)

Legend:
tumor = settings: single agent or in combination with anti-PD-1 ab, mouse models; cited from earlier work
[1] = test system: mouse bone-marrow-derived macrophages (BMDM); experiment: uptake of pHrodo-labeled apoptotic thymocytes by BMDM; assay type: cell-based; settings: pHrodo-labeled apoptotic thymocytes as target cells
Ccn1 = Ccn1 mRNA level in cells; assay type: cell-based, mouse
BMDM = experiment: recombinant CCN1 treatment of BMDM, CD206+ frequency; assay type: cell-based, mouse
CD8+ T cells = CD8+ T cells co-cultured with MC38 CCM-educated MQ or DC; assay type: cell-based, mouse
mouse peritoneal MQ = settings: 100 µg/mL CCN1, direct exposure; cited from earlier work

COc1cc2nccc(Oc3ccc(NC(=O)c4cn(C(C)C)c(=O)n(-c5ccc(F)cc5)c4=O)cc3F)c2cc1OC [RXDX-106]
tumor-growth-inhibitory effects (tumor): excellent tumor-growth-inhibitory effects

CCOc1ccn(-c2ccc(F)cc2)c(=O)c1C(=O)Nc1ccc(Oc2ccnc(N)c2Cl)c(F)c1 [BMS-777607]
tumor-growth-inhibitory effects (tumor): excellent tumor-growth-inhibitory effects

CCCCNc1ncc(-c2ccc(CN3CCOCC3)cn2)c(NC2CCC(O)CC2)n1 (stereo not drawn) [UNC2250]
ability of phagocytosis in BMDM [1]: significantly decreased | mRNA level of Ccn1 in BMDM primed with MC38 culture media (Ccn1): could not decrease

B1: CCN1: recombinant CCN1, a secreted matricellular protein, added to macrophages (protein, UniProt O00622 25-381, looked up)
CCN family member 1: TCPAACHCPLEAPKCAPGVGLVRDGCGCCKVCAKQLNEDCSKTQPCDHTKGLECNFGASSTALKGICRAQSEGRPCEYNSRIYQNGESFQPNCKHQCTCIDGAVGCIPLCPQELSLPNLGCPNPRLVKVTGQCCEEWVCDEDSIKDPMEDQDGLLGKELGFDASEVELTRNNELIAVGKGSSLKRLPVFGMEPRILYNPLQGQKCIVQTTSWSQCSKTCGTGISTRVTNDNPECRLVKETRICEVRPCGQPVYSSLKKGKKCSKTKKSPEPVRFTYAGCLSVKKYRPKYCGSCVDGRCCTPQLTRTVKMRFRCEDGETFSKNVMMIQSCKCNYNCPHANEAAFPFYRLFNDIHKFRD
frequency of M2-skewed MQ (BMDM; 10–500 ng/mL CCN1): increases | frequency of CD206+ BMDM (BMDM; recombinant CCN1, concentration-dependent and in presence of MC38 CCM): increased | effect of CCN1 addition on KRCT87-mediated immune-boosting effects (CD8+ T cells; CCN1 addition to DC): could not nullify | effect of CCN1 addition on KRCT87-elevated granzyme B, IFN-γ, TNF-α production (CD8+ T cells; MQ educated by MC38-CCM): completely reversed | differentiation into M1-skewing MQ producing pro-inflammatory cytokines (mouse peritoneal MQ): promotes differentiation into M1-skewing MQ
